Source: patent publication US20200317768A1 (published 2020)

T1: human FcγRIIb extracellular domain, C-terminal His-tag (human, UniProt P31994 43-217)
T1 construct: Soluble extracellular domain expressed in FreeStyle 293 cells; also called FcgRIIb; not shown: His-tag added to the C-terminus
T1 sequence: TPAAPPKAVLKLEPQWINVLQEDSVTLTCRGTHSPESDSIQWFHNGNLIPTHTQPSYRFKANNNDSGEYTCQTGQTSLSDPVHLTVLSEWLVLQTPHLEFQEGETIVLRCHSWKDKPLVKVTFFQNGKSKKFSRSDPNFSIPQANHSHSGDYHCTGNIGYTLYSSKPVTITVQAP

T2: human FcγRIIaR extracellular domain, C-terminal His-tag (human, UniProt P12318 34-217)
T2 construct: Soluble extracellular domain expressed in FreeStyle 293 cells; also called FcgRIIaR; human FcγRIIa (type R); not shown: His-tag added to the C-terminus
T2 chain: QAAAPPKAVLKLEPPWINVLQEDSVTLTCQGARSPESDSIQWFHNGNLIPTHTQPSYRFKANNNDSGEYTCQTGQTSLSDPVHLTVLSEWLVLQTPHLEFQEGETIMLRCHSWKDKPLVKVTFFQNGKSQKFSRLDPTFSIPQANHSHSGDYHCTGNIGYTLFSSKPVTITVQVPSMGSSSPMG

T3: human FcγRIIaH extracellular domain, C-terminal His-tag (human, UniProt P12318 34-217)
T3 construct: Soluble extracellular domain expressed in FreeStyle 293 cells; also called FcgRIIaH; human FcγRIIa (type H); not shown: His-tag added to the C-terminus
T3 sequence: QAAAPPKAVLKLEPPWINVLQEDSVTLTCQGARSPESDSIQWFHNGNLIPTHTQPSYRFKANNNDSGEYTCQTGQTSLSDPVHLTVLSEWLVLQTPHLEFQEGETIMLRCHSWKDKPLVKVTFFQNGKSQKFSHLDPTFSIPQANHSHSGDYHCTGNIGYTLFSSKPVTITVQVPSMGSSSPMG


Columns and labels:
[1] = biological target: T1, human FcγRIIb extracellular domain, …; assay: SPR (BIACORE); KD of SG1 divided by KD of the variant
Experimental: (§1) The kinetic analysis of interactions between these antibodies and FcγR was carried out using BIACORE® T200 or BIACORE® 4000 (GE Healthcare). HBS-EP+ (GE Healthcare) was used as the running buffer, and the measurement temperature was set to 25° C. A chip produced by immobilizing Protein A. Protein A/G or mouse anti-human IgG kappa light chain (BD Biosciences) onto a Series S Sensor Chip CM4 or CM5 (GE Healthcare) by the amine-coupling method was used. […] After the measurement, the antibody captured on the chip was washed off by allowing reaction with 10 mM glycine-HCl, pH1.5 and 25 mM NaOH so that the chip was regenerated and used repeatedly. The sensorgrams obtained as measurement results were analyzed by the 1:1 Langmuir binding model using the BIACORE® Evaluation Software to calculate the binding rate constant ka (L/mol/s) and dissociation rate constant kd (l/s), and the dissociation constant KD (mol/L) was calculated from these values. […] Regarding such interactions, KD values were calculated using the following 1:1 binding model described in BIACORE® T100 Software Handbook BR1006-48 Edition AE.
(§2) Furthermore, the substitutions used in Example 29 for improving antibody half-life and reducing binding to rheumatoid factor were introduced into human FcγRIIb-enhanced Fc variants and their affinity against human FcγRs were analyzed (Table 29). In this SPR analysis, all the data were obtained using mouse anti-human IgG kappa light chain for capturing the antibodies of interest.

[2] = biological target: T4, human FcγRIIIaV extracellular domain, C-terminal His-tag (human, UniProt P08637 17-208); assay: as above
T4 construct: Soluble extracellular domain expressed in FreeStyle 293 cells; also called FcgRIIIaV; not shown: His-tag added to the C-terminus
T4 sequence (P08637 17-208 F176V): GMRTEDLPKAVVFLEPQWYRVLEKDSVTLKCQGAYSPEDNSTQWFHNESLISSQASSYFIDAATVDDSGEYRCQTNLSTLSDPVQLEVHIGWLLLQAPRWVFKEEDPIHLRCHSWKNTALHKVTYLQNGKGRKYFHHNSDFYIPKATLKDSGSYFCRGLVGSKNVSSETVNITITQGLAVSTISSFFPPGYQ
Experimental: as §1, §2

[3] = biological target: T2, human FcγRIIaR extracellular domain, …; assay: as above
Experimental: as §1, §2

[4] = biological target: T3, human FcγRIIaH extracellular domain, …; assay: as above
Experimental: as §1, §2

[5] = biological target: T1, human FcγRIIb extracellular domain, …; assay: SPR (BIACORE), antibody captured by mouse anti-human IgG kappa light chain, FcgR extracellular domain as analyte, 25 C
Experimental: as §1, §2

[6] = biological target: T4, human FcγRIIIaV extracellular domain, …; assay: as above
Experimental: as §1, §2

[7] = biological target: T2, human FcγRIIaR extracellular domain, …; assay: as above
Experimental: as §1, §2

[8] = biological target: T3, human FcγRIIaH extracellular domain, …; assay: as above
Experimental: as §1, §2

Binder	KD fold for humanFcgRs (SG1 = 1) [1]	KD fold for humanFcgRs (SG1 = 1) [2]	KD fold for humanFcgRs (SG1 = 1) [3]	KD fold for humanFcgRs (SG1 = 1) [4]	Kd [5]	Kd [6]	Kd [7]	Kd [8]
MS103240H795-SG1/M103202L1045-SK1 (antibody, human IgG1, kappa, Parent constant region SG1 (human IgG1-like); also called MS1032LO19-SG1; copies: 2 + 2) heavy: not shown light: DIVMTQSPATLSLSPGERATLSCTTSQSVYHENWLSWFQQKPGQPPKLLIYWASTLAYGVPSRFSGSGSGTDFTLTISSLQPEDAATYYCAGGYGGGRYAFGQGTKVEIKRTVAAPSVFIFPPSDEQLKSGTASVVCLLNNFYPREAKVQWKVDNALQSGNSQESVTEQDSKDSTYSLSSTLTLSKADYEKHKVYACEVTHQGLSSPVTKSFNRGEC	1 fold	1 fold	1 fold	1 fold	4.7 µM	0.72 µM	1.2 µM	0.97 µM
MS103240H795-TT66/M103202L1045-SK1 (antibody) heavy: QVQLVESGGGLVQPGGSLRLSCAVSGIDLSHDDISWVRQAPGKGLEWVSIISYAGSTYYASWAKGRLTISKDTSKNQVVLTMTNMDPVDTATYYCARGVPAYSHGGDLWGQGTLVTVSSASTKGPSVFPLAPSSKSTSGGTAALGCLVKDYFPEPVTVSWNSGALTSGVHTFPAVLQSSGLYSLSSVVTVPSSSLGTQTYICNVNHKPSNTKVDKKVEPKSCDKTHTCPPCPAPELLGGDSVFLFPPKPKDVLMISRTPEVTCVVVDVSHEDPEVKFNWYVDGVEVHNAKTKPREEQYNSTYRVVSVLPVLHRDWLNGKEYKCKVSNKALPKPIEKTISKAKGQRREPQVYTLPPSREEMTKNQVSLTCLVKGFYPSDIAVEWESNGQPENNYKTTPPVLDSDGSFFLYSKLTVDKSRWQQGNVFSCSVMHEALHAHYTRKELSLSP light: DIVMTQSPATLSLSPGERATLSCTTSQSVYHENWLSWFQQKPGQPPKLLIYWASTLAYGVPSRFSGSGSGTDFTLTISSLQPEDAATYYCAGGYGGGRYAFGQGTKVEIKRTVAAPSVFIFPPSDEQLKSGTASVVCLLNNFYPREAKVQWKVDNALQSGNSQESVTEQDSKDSTYSLSSTLTLSKADYEKHKVYACEVTHQGLSSPVTKSFNRGEC	4.7 fold	0.001 fold	0.04 fold	0.007 fold	1 µM	590 µM	32 µM	130 µM
MS103240H795-TT33/M103202L1045-SK1 (antibody, human IgG1, kappa, copies: 2 + 2) heavy: QVQLVESGGGLVQPGGSLRLSCAVSGIDLSHDDISWVRQAPGKGLEWVSIISYAGSTYYASWAKGRLTISKDTSKNQVVLTMTNMDPVDTATYYCARGVPAYSHGGDLWGQGTLVTVSSASTKGPSVFPLAPSSKSTSGGTAALGCLVKDYFPEPVTVSWNSGALTSGVHTFPAVLQSSGLYSLSSVVTVPSSSLGTQTYICNVNHKPSNTKVDKKVEPKSCDKTHTCPPCPAPEYLGGDSVFLFPPKPKDVLMISRTPEVTCVVIDVSHEDPEVKFNWYVDGVEVHNAKTKPREEQYNSTYRVVSVLPVLHRDWLNGKEYKCKVSNKALPKPIEKTISKAKGQPREPQVYTLPPSREEMTKNQVSLTCLVKGFYPSDIAVEWESNGQPENNYKTTPPVLDSDGSFFLYSKLTVKKSRWQQGNVFSCSVMHEALHNHYTQKSLSLSP light: DIVMTQSPATLSLSPGERATLSCTTSQSVYHENWLSWFQQKPGQPPKLLIYWASTLAYGVPSRFSGSGSGTDFTLTISSLQPEDAATYYCAGGYGGGRYAFGQGTKVEIKRTVAAPSVFIFPPSDEQLKSGTASVVCLLNNFYPREAKVQWKVDNALQSGNSQESVTEQDSKDSTYSLSSTLTLSKADYEKHKVYACEVTHQGLSSPVTKSFNRGEC	15.7 fold	0.002 fold	0.05 fold	0.028 fold	0.3 µM	400 µM	23 µM	35 µM
